Reference: the supplement of paper PMC10567573

B1: MMP1 (parent)
chain: FHGTRQYKFDPKTKRILTLQKANS
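Note: lentivirally expressed fusions sorted by FACS into six bins by GFP to DsRed ratio, PSI derived from sequencing read proportions per bin multiplied by bin number.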

Variants of: B1
Assay: protein stability index of a GFP-peptide fusion (GPS, HEK-293T) (PSI 1-6); higher = more stable
Conditions: c terminus: a fixed tail appended
For FHGTRQYKYDPKTKRILTLQKANS [F9Y], the protein stability index was 1.75. With FHGTRQYKRDPKTKRILTLQKANS [F9R] the protein stability index was 2.39. FHGTRQYKWDPKTKRILTLQKANS [F9W] showed a protein stability index of 2.27. In the case of FHGTRQYKLDPKTKRILTLQKANS [F9L], the protein stability index is reported as 2.05. In the case of FHGTRQYKQDPKTKRILTLQKANS [F9Q], the protein stability index is reported as 1.6. FHGTRQYKCDPKTKRILTLQKANS [F9C] gave a protein stability index of 2.48. For FHGTRQYKDDPKTKRILTLQKANS [F9D], the protein stability index was 2.27. With FHGTRQYKKDPKTKRILTLQKANS [F9K] the protein stability index was 2.17. In the case of FHGTRQYKHDPKTKRILTLQKANS [F9H], the protein stability index is reported as 1.98. FHGTRQYKFDPKTKRILTLQFANS [K21F] showed a protein stability index of 2.14. FHGTRQYKFDPKTKRILTLQIANS [K21I] showed a protein stability index of 1.78. FHGTRQYKFDPKTKRILTLQQANS [K21Q] gave a protein stability index of 1.9. FHGTRQYKFDPKTKRILTLQMANS [K21M] gave a protein stability index of 1.54. For FHGTRQYKFDPKTKRILTLQAANS [K21A], the protein stability index was 2.02. Work on FHGTRQYKFDPKTKRILTLQDANS [K21D] yielded a protein stability index of 1.88. FHGTRQYKFDPKTKRILTLQVANS [K21V] gave a protein stability index of 1.6. FHGTYQYKFDPKTKRILTLQKANS [R5Y] showed a protein stability index of 2.13. For FHGTPQYKFDPKTKRILTLQKANS [R5P], the protein stability index was 2.32. Variant FHGTAQYKFDPKTKRILTLQKANS [R5A] has a protein stability index of 1.8. Work on FHGTMQYKFDPKTKRILTLQKANS [R5M] yielded a protein stability index of 2.3. In the case of FHGTKQYKFDPKTKRILTLQKANS [R5K], the protein stability index is reported as 2.55. Variant FHGTTQYKFDPKTKRILTLQKANS [R5T] has a protein stability index of 1.68. In the case of FHGTFQYKFDPKTKRILTLQKANS [R5F], the protein stability index is reported as 1.7. FHGTVQYKFDPKTKRILTLQKANS [R5V] showed a protein stability index of 2.04. Variant FHGTRQYEFDPKTKRILTLQKANS [K8E] has a protein stability index of 2.21. FHGTRQYYFDPKTKRILTLQKANS [K8Y] gave a protein stability index of 2.22. For FHGTRQYQFDPKTKRILTLQKANS [K8Q], the protein stability index was 1.78. Work on FHGTRQYHFDPKTKRILTLQKANS [K8H] yielded a protein stability index of 1.76. Variant FHGTRQYDFDPKTKRILTLQKANS [K8D] has a protein stability index of 2.07. Variant FHGTRQYNFDPKTKRILTLQKANS [K8N] has a protein stability index of 2.71. In the case of FHGTRQYGFDPKTKRILTLQKANS [K8G], the protein stability index is reported as 2.24. FHGTRQYKFDPFTKRILTLQKANS [K12F] gave a protein stability index of 2.27. FHGTRQYKFDPYTKRILTLQKANS [K12Y] gave a protein stability index of 3.08. For FHGTRQYKFDPDTKRILTLQKANS [K12D], the protein stability index was 1.53. For FHGTRQYKFDPETKRILTLQKANS [K12E], the protein stability index was 2.4. With FHGTRQYKFDPMTKRILTLQKANS [K12M] the protein stability index was 1.7. With FHGTRQYKFDPSTKRILTLQKANS [K12S] the protein stability index was 1.57. For FHGTRQYKFDPKTKRILTKQKANS [L19K], the protein stability index was 2.05. With FHGTRQYKFDPKTKRILTEQKANS [L19E] the protein stability index was 1.73. Variant FHGTRQYKFDPKTKRILTQQKANS [L19Q] has a protein stability index of 1.87. For FHGTRQYKFDPKTKRILTVQKANS [L19V], the protein stability index was 2.03. FHGTRQYKFDPKTKRILTRQKANS [L19R] showed a protein stability index of 1.44. Variant FHGTRQYKFDPKTKRILTIQKANS [L19I] has a protein stability index of 2.05. FHGTRQYKFDPKTKRILTGQKANS [L19G] gave a protein stability index of 2.94. In the case of FHGTRQYKFDPKTKRILTCQKANS [L19C], the protein stability index is reported as 1.63. In the case of FGGTRQYKFDPKTKRILTLQKANS [H2G], the protein stability index is reported as 2.55. With FLGTRQYKFDPKTKRILTLQKANS [H2L] the protein stability index was 2.36. FQGTRQYKFDPKTKRILTLQKANS [H2Q] showed a protein stability index of 2.19. With FIGTRQYKFDPKTKRILTLQKANS [H2I] the protein stability index was 2.47. Work on FAGTRQYKFDPKTKRILTLQKANS [H2A] yielded a protein stability index of 1.69. With FKGTRQYKFDPKTKRILTLQKANS [H2K] the protein stability index was 2.57. FVGTRQYKFDPKTKRILTLQKANS [H2V] showed a protein stability index of 1.91. FYGTRQYKFDPKTKRILTLQKANS [H2Y] gave a protein stability index of 2.35. Variant FFGTRQYKFDPKTKRILTLQKANS [H2F] has a protein stability index of 2.34. In the case of FHGTRQNKFDPKTKRILTLQKANS [Y7N], the protein stability index is reported as 2.46. Variant FHGTRQRKFDPKTKRILTLQKANS [Y7R] has a protein stability index of 2.4. In the case of FHGTRQDKFDPKTKRILTLQKANS [Y7D], the protein stability index is reported as 2.38. With FHGTRQGKFDPKTKRILTLQKANS [Y7G] the protein stability index was 1.77. FHGTRQPKFDPKTKRILTLQKANS [Y7P] gave a protein stability index of 2.08. Work on FHGTRQIKFDPKTKRILTLQKANS [Y7I] yielded a protein stability index of 1.94. FHGTRQWKFDPKTKRILTLQKANS [Y7W] gave a protein stability index of 3.02. For FHGTRQTKFDPKTKRILTLQKANS [Y7T], the protein stability index was 1.89. In the case of FHGTRQKKFDPKTKRILTLQKANS [Y7K], the protein stability index is reported as 2.55. In the case of FHGTRQYKFDPKTKRELTLQKANS [I16E], the protein stability index is reported as 1.93. Work on FHGTRQYKFDPKTKRVLTLQKANS [I16V] yielded a protein stability index of 2.25. FHGTRQYKFDPKTKRRLTLQKANS [I16R] gave a protein stability index of 1.36. In the case of FHGTRQYKFDPKTKRCLTLQKANS [I16C], the protein stability index is reported as 1.68. FHGTRQYKFDPKTKRPLTLQKANS [I16P] gave a protein stability index of 1.93. FHGTRQYKFDPKTKRGLTLQKANS [I16G] gave a protein stability index of 1.64. FHGTRQYKFDPKTKRTLTLQKANS [I16T] showed a protein stability index of 1.91. FHGTRQYKFDPKTKRHLTLQKANS [I16H] gave a protein stability index of 1.42. With FHGTRQYKFDPKTKRMLTLQKANS [I16M] the protein stability index was 1.64. FHGARQYKFDPKTKRILTLQKANS [T4A] showed a protein stability index of 1.81. Work on FHGERQYKFDPKTKRILTLQKANS [T4E] yielded a protein stability index of 2.29. In the case of FHGNRQYKFDPKTKRILTLQKANS [T4N], the protein stability index is reported as 2.38. In the case of FHGVRQYKFDPKTKRILTLQKANS [T4V], the protein stability index is reported as 1.69. For FHGKRQYKFDPKTKRILTLQKANS [T4K], the protein stability index was 2.17. In the case of FHGRRQYKFDPKTKRILTLQKANS [T4R], the protein stability index is reported as 2.06. With FHGLRQYKFDPKTKRILTLQKANS [T4L] the protein stability index was 1.26. FHGTRQYKFDPKTKRILTLHKANS [Q20H] gave a protein stability index of 2.09. With FHGTRQYKFDPKTKRILTLFKANS [Q20F] the protein stability index was 1.91. Variant FHGTRQYKFDPKTKRILTLEKANS [Q20E] has a protein stability index of 2.03. With FHGTRQYKFDPKTKRILTLYKANS [Q20Y] the protein stability index was 1.66. Variant FHGTRQYKFDPKTKRILTLTKANS [Q20T] has a protein stability index of 1.8. FHGTRQYKFDPKTKRILTLDKANS [Q20D] showed a protein stability index of 1.88. For FHGTRQYKFDPKTKRILTLAKANS [Q20A], the protein stability index was 2.46. Work on FHGTRQYKFDPKTKRILTLGKANS [Q20G] yielded a protein stability index of 2.01. Variant MHGTRQYKFDPKTKRILTLQKANS [F1M] has a protein stability index of 3.13. VHGTRQYKFDPKTKRILTLQKANS [F1V] showed a protein stability index of 3.18. Work on PHGTRQYKFDPKTKRILTLQKANS [F1P] yielded a protein stability index of 3.17. For RHGTRQYKFDPKTKRILTLQKANS [F1R], the protein stability index was 3.31. WHGTRQYKFDPKTKRILTLQKANS [F1W] gave a protein stability index of 2.35. With AHGTRQYKFDPKTKRILTLQKANS [F1A] the protein stability index was 3. In the case of NHGTRQYKFDPKTKRILTLQKANS [F1N], the protein stability index is reported as 3.34.
